Positions count from the first letter of the chain named.

The values that follow come from patent publication US20220396627A1 (VERSEAU THERAPEUTICS, published 2022).

The labels stand for the following.
B1: 12P18 (antibody, V domains shown)
VH: QVQLQQSGAELVRPGASVTLSCKASGYTFTDYEMHWVKQTPVHGLEWIGAIDPEAGGTAYNRKFKGKAILTADKSSSTAYMELRSLTSEDSAVYYCTNLGRDYWGQGTTLTVSS
VL: DIVMSQSPSSLAVSVGEKVTMSCKSSQSLLYSSTQKNYLAWYQQKPGQSPKRLIYWASTRESGVPDRFTGSGSGTDFTLTISSVKAEDLAVYYCQQYYSYWTFGGGTKLEIK
B2: 12G23 (antibody, V domains shown)
VH: EVQLQQSGPELVRPGASVKMSCKASGYTFTDYNMHWVKQSHGKSLEWIGYINPNNGGTSYNQKFKGKATLTVNKSSSTAYMELRSLTSDDSAVYYCAREGYGNYPFYWGQGTTLTVSS
VL: DIVLTQSPASLAVSLGQRVTISCRGSESVEYYGTSLMQWYQQKPGQPPKLLIYAASNVESGVPARFSGSGSGTDFSLNIHPVEEDDIAMYFCQQDRKVPYTFGGGTKLEIK
B3: 13O18 (antibody, V domains shown)
VH: B2 VH with S59T, K63N, D89E
VL: B2 VL with G25A, Y90F
B4: 12L19 (antibody, V domains shown)
VH: QVTLKESGPGILQPSQTLSLTCSFSGFSLNTFGMAVGWIRQPSGKGLEWLAHIWWDDSYYFNPALRSRLTISKDTSKNQVFLTIANVDTADTATYYCTRIPDDYDDYAMDYWGQGTSVTVSS
VL: DVVMTQTPLSLPVSLGDQASISCRSSQSLVHSNGNTYLHWYLQKPGQSPKLLVYKVSNRFSGVPDRFSGSGSGTDFTLKISRVEAEDLGVYFCSQNTHIPYTFGGGTKLEIK
B5: 9C15 (antibody, V domains shown)
VH: QVQLQQPGAELVKPGASVKMSCKASGYTFTSYWITWLNQRPGQGLEWIGDIYPGSGGTNYNERFKSKATLTVDTSSSTAYMQLSSLTSEDSAVYYCARSGGWAMDYWGQGTSVTVSS
VL: DIQMTQTTSSLSASLGDRVTISCRASQDISNYLNWYQQKPDGTVKLLIYYKSGLHSGVPSRFSGSGSGTDYSLTISNLEQEDIATYFCQQGNTLPFTFGGGTKLEIK
B6: 9D21 (antibody, V domains shown)
VH: QVQLKESGPGLVAPSQSLSITCTVSGFSLTRYGVSWVRQPPGKGLEWLGVIWGDGSTNYHSALISRLSISKDNSKSQVFLKLNSLQTDDTATYYCARPYYGFFDYWGQGTTLTVSS
VL: SIVMTQTPKFLLVSAGDRVTITCKASQSVSNAVAWYQQKPGQSPKMLIYYASNRYTGVPDRFTGSGYGTDFTFTISTVQAEDLAVYFCQQDYSSPYTFGGGTKLEIK
B7: 3L02 (antibody, V domains shown)
VH: DVQLQESGPGMVKPSQSLSLTCTVTGYSITSGYDWHWIRHFPGNKLEWMGYISYSAGTNYNPSLKSRISITHDTSKNHFFLKLNSVTTEDTATYYCAREGLTAYWYFDVWGTGTTVTVSS
VL: DIVMTQSQKFMSTSVGDRVSVTCKASQTVGTNVAWYQQKPGQSPKPLIYSASYRYSGVPDRFTGSGSGTDFTLTISNVQSEDLAEYFCQQYDSFPLTFGSGTKLEIK

T3 sequence (Fc fusion chain, as listed by the source): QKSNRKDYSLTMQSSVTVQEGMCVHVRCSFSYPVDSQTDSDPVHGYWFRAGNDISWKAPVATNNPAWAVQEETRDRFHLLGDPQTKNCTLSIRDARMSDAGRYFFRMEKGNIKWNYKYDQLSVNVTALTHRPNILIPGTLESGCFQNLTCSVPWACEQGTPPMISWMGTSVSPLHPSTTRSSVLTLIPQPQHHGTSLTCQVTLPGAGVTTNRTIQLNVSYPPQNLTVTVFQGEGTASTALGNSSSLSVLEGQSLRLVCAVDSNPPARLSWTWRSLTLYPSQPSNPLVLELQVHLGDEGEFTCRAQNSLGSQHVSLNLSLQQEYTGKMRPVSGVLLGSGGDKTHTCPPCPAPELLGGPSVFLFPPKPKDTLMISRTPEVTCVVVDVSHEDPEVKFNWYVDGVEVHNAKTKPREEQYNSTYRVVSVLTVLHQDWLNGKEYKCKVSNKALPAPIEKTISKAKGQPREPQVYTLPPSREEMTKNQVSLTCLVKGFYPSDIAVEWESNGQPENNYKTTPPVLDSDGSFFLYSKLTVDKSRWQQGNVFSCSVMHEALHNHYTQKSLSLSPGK
T1 sequence (chain, as listed by the source limits assumed): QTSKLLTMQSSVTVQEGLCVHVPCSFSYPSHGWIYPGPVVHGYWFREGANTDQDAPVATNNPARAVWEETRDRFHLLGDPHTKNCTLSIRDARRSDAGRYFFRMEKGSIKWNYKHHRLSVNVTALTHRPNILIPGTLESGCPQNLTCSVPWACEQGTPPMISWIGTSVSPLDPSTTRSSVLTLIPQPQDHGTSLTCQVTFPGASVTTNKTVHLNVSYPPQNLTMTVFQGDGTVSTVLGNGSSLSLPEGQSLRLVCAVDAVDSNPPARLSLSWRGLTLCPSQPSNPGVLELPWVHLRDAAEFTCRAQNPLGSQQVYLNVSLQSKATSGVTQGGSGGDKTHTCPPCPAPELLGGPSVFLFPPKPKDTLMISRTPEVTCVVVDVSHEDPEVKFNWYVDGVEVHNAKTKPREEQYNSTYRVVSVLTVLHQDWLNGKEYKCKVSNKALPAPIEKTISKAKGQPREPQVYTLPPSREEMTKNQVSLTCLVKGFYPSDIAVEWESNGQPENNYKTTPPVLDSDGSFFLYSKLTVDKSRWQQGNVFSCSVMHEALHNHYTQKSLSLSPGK
T2 sequence (Fc fusion chain, as listed by the source): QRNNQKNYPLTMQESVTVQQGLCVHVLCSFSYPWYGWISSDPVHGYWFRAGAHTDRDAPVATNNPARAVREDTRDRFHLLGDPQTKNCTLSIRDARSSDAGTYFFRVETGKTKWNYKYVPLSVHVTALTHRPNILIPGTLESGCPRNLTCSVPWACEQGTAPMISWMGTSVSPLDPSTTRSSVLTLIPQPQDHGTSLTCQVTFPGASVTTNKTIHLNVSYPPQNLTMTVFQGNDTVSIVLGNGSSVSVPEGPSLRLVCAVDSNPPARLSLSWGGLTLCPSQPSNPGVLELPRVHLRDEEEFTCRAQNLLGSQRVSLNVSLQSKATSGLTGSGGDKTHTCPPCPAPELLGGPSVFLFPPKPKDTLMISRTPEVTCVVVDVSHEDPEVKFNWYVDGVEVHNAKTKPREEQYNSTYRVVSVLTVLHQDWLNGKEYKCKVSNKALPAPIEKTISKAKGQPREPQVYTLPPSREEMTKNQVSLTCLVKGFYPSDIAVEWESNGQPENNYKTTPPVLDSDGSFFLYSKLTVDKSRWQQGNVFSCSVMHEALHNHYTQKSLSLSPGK

One assay addresses T1, Human Siglec-9-Fc (recombinant human Siglec-9 extracellular domain Q18-G348 fused to human IgG1 Fc) (human). The assay can be described thus: BLI binning, hSiglec-9-Fc on AHC sensor; competitor bound first (row): 2F15. The method, then: (§1) Epitopic diversity of functional antibodies was further assessed by antibody cross-blocking experiments, performed on a ForteBio Octet Red384 system. All samples were prepared in black 384-well flat bottom plates from (Greiner, Cat. #781209) with a working volume of 120 uL and diluted in kinetics buffer (1×DPBS containing 0.1% bovine serum albumin, 0.05% sodium azide, and 0.02% Tween®20). Anti-SIGLEC-9 antibodies and human Siglec-9-Fc protein were diluted in kinetics buffer to a final concentration of 10 ug/mL. Anti-human IgG Fc capture (AHC) biosensors (ForteBio, Cat. #18-5060) were rehydrated prior to the assay in kinetics buffer for 10 minutes then equilibrated in kinetics buffer for 60 seconds. Recombinant human Siglec-9-Fc was then immobilized for 120 seconds followed by a 30 second baseline wash in fresh kinetics buffer, 120 second association of a first antibody (antibody “a”), 30 second wash, and then 120 second association of a competitor antibody (antibody “b”). All assay steps occurred at 30° C. with an acquisition rate of 5.0 Hz.
(§2) Binning results were calculated using ForteBio Data Analysis HT software. Antibody “a” and antibody “b” steps were defined, and the maximum binding calculation was averaged at the last 10% of the step duration. Once the matrix was generated the self-self interaction was subtracted and hierarchical clustering was set with a similarity metric of Pearson and Lingang Criteria by Mean and the maximum binding nm shift is reported in Table 7 below.
In the case of B1, the “maximum binding nm shift” value came out at 0.352 nm.

On to B2, for which the “maximum binding nm shift” value was determined as 0.001 nm.

As to B3, the “maximum binding nm shift” value amounted to 0.003 nm.

Regarding B4, the “maximum binding nm shift” value was determined as 0.198 nm.

For B5, the “maximum binding nm shift” value was 0.399 nm.

As to B6, the “maximum binding nm shift” value is 0.619 nm.

Another assay addresses T2, Cyno SIGLEC9.
T2 construct: also called cyno Siglec-9-Fc; Cynomolgus Monkey SIGLEC9-Fc
Description: ELISA: plate coated with 1 ug/mL cyno Siglec-9-Fc, antibody at 100 nM, HRP anti-mouse Fc secondary, RLU. The method, then: (§3) ELISA plates (384-well) were coated with 1 ug/mL indicated SIGLEC protein at room temperature. The plates were washed with PBS with 0.1% Tween®20, pH 7.4 and blocked with TBS containing 3% BSA. The plates were washed and incubated with anti-SIGLEC9 antibody diluted to 100 nM. Plates were washed and incubated with HRP-coupled anti-mouse Fc secondary antibody. Plates underwent a final wash and were incubated with HRP substrate. Readout was performed using a POLARstar Omega Microplate Reader (BMG LAPTECH).
Background: ELISA stands for enzyme-linked immunosorbent assay.
For B1, the binding result is given as “no binding (tested: 100 nM)”.

As for B4, the binding result is listed as “no binding (tested: 100 nM)”.

B6: the binding result is reported as “binds”.

The next assay deals with T1, Human Siglec-9-Fc (recombinant human …). Description: BLI binning, hSiglec-9-Fc on AHC sensor; competitor bound first (row): 13J19. The method, then: as §1, §2
B1: the “maximum binding nm shift” value came out at 0.324 nm.

Take B2: the “maximum binding nm shift” value came to 0.139 nm.

B3: the “maximum binding nm shift” value came out at 0.135 nm.

Consider B4, for which the “maximum binding nm shift” value is 0.175 nm.

In the case of B5, the “maximum binding nm shift” value is 0.282 nm.

With B6, the “maximum binding nm shift” value is -0.022 nm.

Another assay has the same target. Description: BLI binning, hSiglec-9-Fc on AHC sensor; competitor bound first (row): 13O18. The protocol: as §1, §2
Take B1: the “maximum binding nm shift” value was 0.358 nm.

Take B2: the “maximum binding nm shift” value was determined as 0.011 nm.

Regarding B4, the “maximum binding nm shift” value stood at 0.202 nm.

For the molecule B5, the “maximum binding nm shift” value amounted to 0.392 nm.

As for B6, the “maximum binding nm shift” value is 0.495 nm.

The target is the same in a further assay. Description: BLI binning, hSiglec-9-Fc on AHC sensor; competitor bound first (row): 3L02. The method, then: as §1, §2
On to B1, for which the “maximum binding nm shift” value was 0.463 nm.

On to B2, for which the “maximum binding nm shift” value stood at 0.277 nm.

On to B3, for which the “maximum binding nm shift” value was 0.271 nm.

Consider B4, for which the “maximum binding nm shift” value is 0.09 nm.

In the case of B5, the “maximum binding nm shift” value came out at 0.472 nm.

As for B6, the “maximum binding nm shift” value turned out to be 0.745 nm.

The target is the same in the next assay. The assay can be described thus: BLI binning, hSiglec-9-Fc on AHC sensor; competitor bound first (row): 12P18. The protocol:
as §1, §2
B2: the “maximum binding nm shift” value amounted to 0.231 nm.

For B3, the “maximum binding nm shift” value was found to be 0.228 nm.

B4: the “maximum binding nm shift” value was 0.379 nm.

For B5, the “maximum binding nm shift” value is 0.003 nm.

As for B6, the “maximum binding nm shift” value amounted to 0.658 nm.

A further assay addresses T3, Human SIGLEC7.
T3 construct: also called human Siglec-7-Fc
Description: ELISA: plate coated with 1 ug/mL human Siglec-7-Fc, antibody at 100 nM, HRP anti-mouse Fc secondary, RLU. The protocol:
as §3
For the molecule B1, the binding result is “no binding (tested: 100 nM)”.

For the molecule B7, the binding result is “no binding (tested: 100 nM)”.

With B4, the binding result is “no binding (tested: 100 nM)”.

Regarding B6, the binding result was “binds”.

The next assay concerns the target T1, Human Siglec-9-Fc (recombinant human …). Description: BLI binning, hSiglec-9-Fc on AHC sensor; competitor bound first (row): 12L19. The method, then: as §1, §2
For B1, the “maximum binding nm shift” value amounted to 0.518 nm.

For B2, the “maximum binding nm shift” value was determined as 0.263 nm.

As for B3, the “maximum binding nm shift” value turned out to be 0.251 nm.

For the molecule B5, the “maximum binding nm shift” value stood at 0.392 nm.

B6: the “maximum binding nm shift” value was 0.73 nm.

The target is the same in the next assay. Description: BLI binning, hSiglec-9-Fc on AHC sensor; competitor bound first (row): 13H10 (printed 13H110). The method, then: as §1, §2
Turning to B1, the “maximum binding nm shift” value was determined as 0.336 nm.

B2: the “maximum binding nm shift” value was 0.242 nm.

B3: the “maximum binding nm shift” value was determined as 0.224 nm.

As for B4, the “maximum binding nm shift” value is -0.02 nm.

For the molecule B5, the “maximum binding nm shift” value is 0.336 nm.

For the molecule B6, the “maximum binding nm shift” value came out at 0.686 nm.

A further assay shares this target. Description: BLI binning, hSiglec-9-Fc on AHC sensor; competitor bound first (row): 9D21. The method, then: as §1, §2
Regarding B1, the “maximum binding nm shift” value is 0.349 nm.

As for B2, the “maximum binding nm shift” value is 0.162 nm.

Regarding B3, the “maximum binding nm shift” value is 0.163 nm.

Consider B4, for which the “maximum binding nm shift” value came out at 0.263 nm.

On to B5, for which the “maximum binding nm shift” value is 0.395 nm.

Another assay has the same target. Description: BLI binning, hSiglec-9-Fc on AHC sensor; competitor bound first (row): 12G23. The protocol:
as §1, §2
In the case of B1, the “maximum binding nm shift” value is 0.439 nm.

Turning to B3, the “maximum binding nm shift” value is -0.016 nm.

As to B4, the “maximum binding nm shift” value came out at 0.185 nm.

With B5, the “maximum binding nm shift” value amounted to 0.352 nm.

As for B6, the “maximum binding nm shift” value amounted to 0.524 nm.

For the next assay the target is unchanged. Description: BLI binning, hSiglec-9-Fc on AHC sensor; competitor bound first (row): 9C15. The method, then:
as §1, §2
Consider B1, for which the “maximum binding nm shift” value came to 0.03 nm.

As for B2, the “maximum binding nm shift” value worked out at 0.233 nm.

With B3, the “maximum binding nm shift” value is 0.232 nm.

As to B4, the “maximum binding nm shift” value amounted to 0.231 nm.

Regarding B6, the “maximum binding nm shift” value came to 0.561 nm.
